Data on five molecules can be found in patent publication US20220119490A1 (Genentech, published 2022).

Assay [1] addresses T1, PTPRD G203E K204E variant extracellular domain (human, UniProt P23468 21-1265).
T1 construct: extracellular domain; also called G203E/K204E double mutant; IG2 mutant
T1 sequence (looked up): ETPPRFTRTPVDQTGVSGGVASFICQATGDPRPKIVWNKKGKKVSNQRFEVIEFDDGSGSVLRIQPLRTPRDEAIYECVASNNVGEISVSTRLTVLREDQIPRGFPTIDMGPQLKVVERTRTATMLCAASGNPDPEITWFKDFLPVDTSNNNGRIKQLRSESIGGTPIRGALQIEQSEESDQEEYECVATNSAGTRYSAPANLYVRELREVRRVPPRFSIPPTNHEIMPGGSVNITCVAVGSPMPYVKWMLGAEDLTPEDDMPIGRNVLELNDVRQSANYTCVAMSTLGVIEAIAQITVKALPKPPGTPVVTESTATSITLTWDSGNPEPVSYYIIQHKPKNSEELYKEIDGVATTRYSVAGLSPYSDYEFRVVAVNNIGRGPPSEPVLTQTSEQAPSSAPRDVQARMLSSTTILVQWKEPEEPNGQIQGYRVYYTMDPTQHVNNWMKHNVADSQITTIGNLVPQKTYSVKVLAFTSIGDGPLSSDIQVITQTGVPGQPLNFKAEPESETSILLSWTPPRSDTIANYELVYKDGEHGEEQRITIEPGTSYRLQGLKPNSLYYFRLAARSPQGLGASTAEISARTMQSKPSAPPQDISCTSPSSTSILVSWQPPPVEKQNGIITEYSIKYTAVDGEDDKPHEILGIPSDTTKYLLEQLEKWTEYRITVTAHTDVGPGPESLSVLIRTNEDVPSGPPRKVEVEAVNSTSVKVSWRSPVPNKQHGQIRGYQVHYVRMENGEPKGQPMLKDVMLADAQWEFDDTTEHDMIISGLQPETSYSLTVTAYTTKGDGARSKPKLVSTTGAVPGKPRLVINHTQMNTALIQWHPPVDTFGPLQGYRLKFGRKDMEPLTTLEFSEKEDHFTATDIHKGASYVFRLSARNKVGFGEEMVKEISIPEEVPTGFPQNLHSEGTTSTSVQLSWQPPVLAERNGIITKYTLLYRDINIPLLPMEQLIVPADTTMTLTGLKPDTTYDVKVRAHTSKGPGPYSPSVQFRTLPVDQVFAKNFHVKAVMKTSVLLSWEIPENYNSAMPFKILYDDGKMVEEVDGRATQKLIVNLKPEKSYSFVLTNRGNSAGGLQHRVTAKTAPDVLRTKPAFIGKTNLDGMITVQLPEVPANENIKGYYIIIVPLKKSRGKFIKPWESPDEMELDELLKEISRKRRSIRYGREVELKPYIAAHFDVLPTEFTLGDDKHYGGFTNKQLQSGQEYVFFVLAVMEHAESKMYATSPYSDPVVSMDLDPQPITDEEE
Nature of the assay: extracellular interaction screen: pentameric PTPRD variant ECD on ECD-Fc prey (FIG. 5L).

Assay [2] concerns the target T2, PTPRD extracellular domain (wild type) (human, UniProt P23468 21-1265).
T2 construct: extracellular domain; Ectodomain-Fc in SPR; also called wt PTPRD; PTPRD ectodomain fused to an Fc tag
T2 sequence (looked up): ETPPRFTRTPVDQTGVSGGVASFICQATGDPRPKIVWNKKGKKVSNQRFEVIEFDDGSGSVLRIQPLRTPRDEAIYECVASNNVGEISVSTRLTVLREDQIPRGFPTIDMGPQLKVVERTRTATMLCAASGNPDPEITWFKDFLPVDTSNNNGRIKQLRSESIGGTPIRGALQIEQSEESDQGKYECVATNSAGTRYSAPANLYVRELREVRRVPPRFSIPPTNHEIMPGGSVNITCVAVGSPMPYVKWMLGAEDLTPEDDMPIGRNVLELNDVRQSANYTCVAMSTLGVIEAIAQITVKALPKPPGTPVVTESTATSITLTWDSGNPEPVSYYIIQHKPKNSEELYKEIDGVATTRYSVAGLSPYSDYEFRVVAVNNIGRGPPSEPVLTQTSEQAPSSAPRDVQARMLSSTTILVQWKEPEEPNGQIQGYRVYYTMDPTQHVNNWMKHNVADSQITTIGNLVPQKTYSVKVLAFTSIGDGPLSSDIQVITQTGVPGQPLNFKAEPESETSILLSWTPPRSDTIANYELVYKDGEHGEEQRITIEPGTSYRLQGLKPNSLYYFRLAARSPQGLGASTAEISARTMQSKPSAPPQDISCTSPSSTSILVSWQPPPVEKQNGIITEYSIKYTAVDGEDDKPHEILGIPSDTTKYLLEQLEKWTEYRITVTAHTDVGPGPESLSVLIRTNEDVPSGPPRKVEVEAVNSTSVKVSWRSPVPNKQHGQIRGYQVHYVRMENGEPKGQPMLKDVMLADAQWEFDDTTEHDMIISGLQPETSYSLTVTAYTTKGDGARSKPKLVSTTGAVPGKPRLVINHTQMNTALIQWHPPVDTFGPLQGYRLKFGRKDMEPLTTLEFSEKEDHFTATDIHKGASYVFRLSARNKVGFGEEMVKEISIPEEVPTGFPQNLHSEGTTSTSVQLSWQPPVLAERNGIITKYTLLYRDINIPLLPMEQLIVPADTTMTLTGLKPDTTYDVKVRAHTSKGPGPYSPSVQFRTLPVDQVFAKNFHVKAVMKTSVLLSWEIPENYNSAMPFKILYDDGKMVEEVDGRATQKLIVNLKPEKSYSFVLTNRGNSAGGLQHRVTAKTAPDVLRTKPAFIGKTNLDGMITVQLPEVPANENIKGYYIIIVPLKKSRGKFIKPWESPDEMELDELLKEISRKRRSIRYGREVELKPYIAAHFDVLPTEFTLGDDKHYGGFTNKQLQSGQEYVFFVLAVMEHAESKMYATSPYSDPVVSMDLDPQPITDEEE
Kind of assay: SPR, LRFN4 ECD-Fc immobilized, PTPRD ectodomain-Fc as analyte. Here is the method: (§1) The indicated protein (expressed as an ECD-Fc fusion protein) was immobilized on a sensor chip and PTPRD (expressed as an ectodomain fused to an Fc tag) was injected at the indicated concentrations.
In general terms: Surface plasmon resonance follows binding to a sensor surface in real time, without labels.

Assay [3] has as its target T2, PTPRD extracellular domain (wild type). Kind of assay: SPR, ILRAPL1 (IL1RAPL1) ECD-Fc immobilized, PTPRD ectodomain-Fc as analyte. Here is the method: as §1
Assay [4] shares this target. Nature of the assay: SPR, SLITRK1 ECD-Fc immobilized, PTPRD ectodomain-Fc as analyte. Here is the method:
as §1

Assay [5] shares this target. Nature of the assay: SPR, LRFN1 ECD-Fc immobilized, PTPRD ectodomain-Fc as analyte. Here is the method:
as §1

Assay [6] has the same target. Kind of assay: SPR, SLITRK4 ECD-Fc immobilized, PTPRD ectodomain-Fc as analyte. How it is done: as §1

B1: LRFN4 extracellular domain (receptor, human, UniProt Q6PJG9 17-518, looked up)
chain: CPLPCVCQNLSESLSTLCAHRGLLFVPPNVDRRTVELRLADNFIQALGPPDFRNMTGLVDLTLSRNAITRIGARAFGDLESLRSLHLDGNRLVELGTGSLRGPVNLQHLILSGNQLGRIAPGAFDDFLESLEDLDLSYNNLRQVPWAGIGAMPALHTLNLDHNLIDALPPGAFAQLGQLSRLDLTSNRLATLAPDPLFSRGRDAEASPAPLVLSFSGNPLHCNCELLWLRRLARPDDLETCASPPGLAGRYFWAVPEGEFSCEPPLIARHTQRLWVLEGQRATLRCRALGDPAPTMHWVGPDDRLVGNSSRARAFPNGTLEIGVTGAGDAGGYTCIATNPAGEATARVELRVLALPHGGNSSAEGGRPGPSDIAASARTAAEGEGTLESEPAVQVTEVTATSGLVSWGPGRPADPVWMFQIQYNSSEDETLIYRIVPASSHHFLLKHLVPGADYDLCLLALSPAAGPSDLTATRLLGCAHFSTLPASPLCHALQAHVLGGTL
notes: extracellular domain; ECD-Fc; also called LFRN4
Turning to B1, the binding result in assay [1] is reported as “no binding”; in assay [2], “binds”.

B2: IL1RAPL1 extracellular domain (receptor, human, UniProt Q9NZN1 19-357, looked up)
chain: LKVVTKRGSADGCTDWSIDIKKYQVLVGEPVRIKCALFYGYIRTNYSLAQSAGLSLMWYKSSGPGDFEEPIAFDGSRMSKEEDSIWFRPTLLQDSGLYACVIRNSTYCMKVSISLTVGENDTGLCYNSKMKYFEKAELSKSKEISCRDIEDFLLPTREPEILWYKECRTKTWRPSIVFKRDTLLIREVREDDIGNYTCELKYGGFVVRRTTELTVTAPLTDKPPKLLYPMESKLTIQETQLGDSANLTCRAFFGYSGDVSPLIYWMKGEKFIEDLDENRVWESDIRILKEHLGEQEVSISLIVDSVEEGDLGNYSCYVENGNGRRHASVLLHKRELMYT
notes: extracellular domain; ECD-Fc; also called ILRAPL1
As for B2, in assay [3], the binding result is “binds”.

B3: SLITRK1 extracellular domain (receptor, human, UniProt Q96PX8 18-622, looked up)
chain: NVTGDVCKEKICSCNEIEGDLHVDCEKKGFTSLQRFTAPTSQFYHLFLHGNSLTRLFPNEFANFYNAVSLHMENNGLHEIVPGAFLGLQLVKRLHINNNKIKSFRKQTFLGLDDLEYLQADFNLLRDIDPGAFQDLNKLEVLILNDNLISTLPANVFQYVPITHLDLRGNRLKTLPYEEVLEQIPGIAEILLEDNPWDCTCDLLSLKEWLENIPKNALIGRVVCEAPTRLQGKDLNETTEQDLCPLKNRVDSSLPAPPAQEETFAPGPLPTPFKTNGQEDHATPGSAPNGGTKIPGNWQIKIRPTAAIATGSSRNKPLANSLPCPGGCSCDHIPGSGLKMNCNNRNVSSLADLKPKLSNVQELFLRDNKIHSIRKSHFVDYKNLILLDLGNNNIATVENNTFKNLLDLRWLYMDSNYLDTLSREKFAGLQNLEYLNVEYNAIQLILPGTFNAMPKLRILILNNNLLRSLPVDVFAGVSLSKLSLHNNYFMYLPVAGVLDQLTSIIQIDLHGNPWECSCTIVPFKQWAERLGSEVLMSDLKCETPVNFFRKDFMLLSNDEICPQLYARISPTLTSHSKNSTGLAETGTHSNSYLDTSRVSISVLVP
notes: extracellular domain; ECD-Fc
For the molecule B3, in assay [4], the binding result was “binds”.

B4: LRFN1 extracellular domain (receptor, human, UniProt Q9P244 32-536, looked up)
chain: QPCPGRCICQNVAPTLTMLCAKTGLLFVPPAIDRRVVELRLTDNFIAAVRRRDFANMTSLVHLTLSRNTIGQVAAGAFADLRALRALHLDSNRLAEVRGDQLRGLGNLRHLILGNNQIRRVESAAFDAFLSTVEDLDLSYNNLEALPWEAVGQMVNLNTLTLDHNLIDHIAEGTFVQLHKLVRLDMTSNRLHKLPPDGLFLRSQGTGPKPPTPLTVSFGGNPLHCNCELLWLRRLTREDDLETCATPEHLTDRYFWSIPEEEFLCEPPLITRQAGGRALVVEGQAVSLRCRAVGDPEPVVHWVAPDGRLLGNSSRTRVRGDGTLDVTITTLRDSGTFTCIASNAAGEATAPVEVCVVPLPLMAPPPAAPPPLTEPGSSDIATPGRPGANDSAAERRLVAAELTSNSVLIRWPAQRPVPGIRMYQVQYNSSVDDSLVYRMIPSTSQTFLVNDLAAGRAYDLCVLAVYDDGATALPATRVVGCVQFTTAGDPAPCRPLRAHFLGGTM
notes: extracellular domain; ECD-Fc; also called LFRN1
Take B4: in assay [5], the binding result is on record as “binds”.

B5: SLITRK4 extracellular domain (receptor, human, UniProt Q8IW52 19-618, looked up)
chain: DSDISVEICNVCSCVSVENVLYVNCEKVSVYRPNQLKPPWSNFYHLNFQNNFLNILYPNTFLNFSHAVSLHLGNNKLQNIEGGAFLGLSALKQLHLNNNELKILRADTFLGIENLEYLQADYNLIKYIERGAFNKLHKLKVLILNDNLISFLPDNIFRFASLTHLDIRGNRIQKLPYIGVLEHIGRVVELQLEDNPWNCSCDLLPLKAWLENMPYNIYIGEAICETPSDLYGRLLKETNKQELCPMGTGSDFDVRILPPSQLENGYTTPNGHTTQTSLHRLVTKPPKTTNPSKISGIVAGKALSNRNLSQIVSYQTRVPPLTPCPAPCFCKTHPSDLGLSVNCQEKNIQSMSELIPKPLNAKKLHVNGNSIKDVDVSDFTDFEGLDLLHLGSNQITVIKGDVFHNLTNLRRLYLNGNQIERLYPEIFSGLHNLQYLYLEYNLIKEISAGTFDSMPNLQLLYLNNNLLKSLPVYIFSGAPLARLNLRNNKFMYLPVSGVLDQLQSLTQIDLEGNPWDCTCDLVALKLWVEKLSDGIVVKELKCETPVQFANIELKSLKNEILCPKLLNKPSAPFTSPAPAITFTTPLGPIRSPPGGPVPLS
notes: extracellular domain; ECD-Fc
In the case of B5, the binding result in assay [6] is “binds”.
